B1: anti-IL-6 antibody, heavy chain I51W, G66D / light chain M32L, M50D, N52S, M88Q (antibody, IgG1, V domains shown)
VH: EVQLVESGGGLVQPGGSLRLSCAASGFTFSPFAMSWVRQAPGKGLEWVAKWSPGGSWTYYSDTVTDRFTFSLDTSKSTAYLQMNSLRAEDTAVYYCARQLWGYYALDIWGQGTLVTVSS
VL: DIQLTQSPSSLSASVGDRVTITCSASISVSYLYWYQQKPGKAPKLLIYDDSSLASGVPSRFSGSGSGTDFTLTISSLQPEDFATYYCQQWSGYPYTFGQGTKVEIK
notes: Full IgG1 (Expi293); VL = variant III
B2: anti-IL-6 antibody, heavy chain S35L, G66D / light chain M32L, M50D, N52S, M88Q (antibody, IgG1, V domains shown)
VH: EVQLVESGGGLVQPGGSLRLSCAASGFTFSPFAMLWVRQAPGKGLEWVAKISPGGSWTYYSDTVTDRFTFSLDTSKSTAYLQMNSLRAEDTAVYYCARQLWGYYALDIWGQGTLVTVSS
VL: DIQLTQSPSSLSASVGDRVTITCSASISVSYLYWYQQKPGKAPKLLIYDDSSLASGVPSRFSGSGSGTDFTLTISSLQPEDFATYYCQQWSGYPYTFGQGTKVEIK
notes: as for B1
B3: anti-IL-6 antibody, heavy chain S35G, G66D / light chain M32L, M50D, N52S, M88Q (antibody, IgG1, V domains shown)
VH: EVQLVESGGGLVQPGGSLRLSCAASGFTFSPFAMGWVRQAPGKGLEWVAKISPGGSWTYYSDTVTDRFTFSLDTSKSTAYLQMNSLRAEDTAVYYCARQLWGYYALDIWGQGTLVTVSS
VL: DIQLTQSPSSLSASVGDRVTITCSASISVSYLYWYQQKPGKAPKLLIYDDSSLASGVPSRFSGSGSGTDFTLTISSLQPEDFATYYCQQWSGYPYTFGQGTKVEIK
notes: as for B1
B4: anti-IL-6 antibody, heavy chain S35A, G66D / light chain M32L, M50D, N52S, M88Q (antibody, IgG1, V domains shown)
VH: EVQLVESGGGLVQPGGSLRLSCAASGFTFSPFAMAWVRQAPGKGLEWVAKISPGGSWTYYSDTVTDRFTFSLDTSKSTAYLQMNSLRAEDTAVYYCARQLWGYYALDIWGQGTLVTVSS
VL: DIQLTQSPSSLSASVGDRVTITCSASISVSYLYWYQQKPGKAPKLLIYDDSSLASGVPSRFSGSGSGTDFTLTISSLQPEDFATYYCQQWSGYPYTFGQGTKVEIK
notes: as for B1
B5: anti-IL-6 antibody, heavy chain S35T, G66D / light chain M32L, M50D, N52S, M88Q (antibody, IgG1, V domains shown)
VH: EVQLVESGGGLVQPGGSLRLSCAASGFTFSPFAMTWVRQAPGKGLEWVAKISPGGSWTYYSDTVTDRFTFSLDTSKSTAYLQMNSLRAEDTAVYYCARQLWGYYALDIWGQGTLVTVSS
VL: DIQLTQSPSSLSASVGDRVTITCSASISVSYLYWYQQKPGKAPKLLIYDDSSLASGVPSRFSGSGSGTDFTLTISSLQPEDFATYYCQQWSGYPYTFGQGTKVEIK
notes: as for B1
B6: anti-IL-6 antibody, heavy chain S35E, G66D / light chain M32L, M50D, N52S, M88Q (antibody, IgG1, V domains shown)
VH: EVQLVESGGGLVQPGGSLRLSCAASGFTFSPFAMEWVRQAPGKGLEWVAKISPGGSWTYYSDTVTDRFTFSLDTSKSTAYLQMNSLRAEDTAVYYCARQLWGYYALDIWGQGTLVTVSS
VL: DIQLTQSPSSLSASVGDRVTITCSASISVSYLYWYQQKPGKAPKLLIYDDSSLASGVPSRFSGSGSGTDFTLTISSLQPEDFATYYCQQWSGYPYTFGQGTKVEIK
notes: as for B1
B7: anti-IL-6 antibody, heavy chain S35V, G66D / light chain M32L, M50D, N52S, M88Q (antibody, IgG1, V domains shown)
VH: EVQLVESGGGLVQPGGSLRLSCAASGFTFSPFAMVWVRQAPGKGLEWVAKISPGGSWTYYSDTVTDRFTFSLDTSKSTAYLQMNSLRAEDTAVYYCARQLWGYYALDIWGQGTLVTVSS
VL: DIQLTQSPSSLSASVGDRVTITCSASISVSYLYWYQQKPGKAPKLLIYDDSSLASGVPSRFSGSGSGTDFTLTISSLQPEDFATYYCQQWSGYPYTFGQGTKVEIK
notes: as for B1
B8: anti-IL-6 antibody, heavy chain S35W, G66D / light chain M32L, M50D, N52S, M88Q (antibody, IgG1, V domains shown)
VH: EVQLVESGGGLVQPGGSLRLSCAASGFTFSPFAMWWVRQAPGKGLEWVAKISPGGSWTYYSDTVTDRFTFSLDTSKSTAYLQMNSLRAEDTAVYYCARQLWGYYALDIWGQGTLVTVSS
VL: DIQLTQSPSSLSASVGDRVTITCSASISVSYLYWYQQKPGKAPKLLIYDDSSLASGVPSRFSGSGSGTDFTLTISSLQPEDFATYYCQQWSGYPYTFGQGTKVEIK
notes: as for B1
B9: anti-IL-6 antibody, heavy chain I51Y, G66D / light chain M32L, M50D, N52S, M88Q (antibody, IgG1, V domains shown)
VH: EVQLVESGGGLVQPGGSLRLSCAASGFTFSPFAMSWVRQAPGKGLEWVAKYSPGGSWTYYSDTVTDRFTFSLDTSKSTAYLQMNSLRAEDTAVYYCARQLWGYYALDIWGQGTLVTVSS
VL: DIQLTQSPSSLSASVGDRVTITCSASISVSYLYWYQQKPGKAPKLLIYDDSSLASGVPSRFSGSGSGTDFTLTISSLQPEDFATYYCQQWSGYPYTFGQGTKVEIK
notes: as for B1
B10: anti-IL-6 antibody, heavy chain T63D, G66D / light chain M32L, M50D, N52S, M88Q (antibody, IgG1, V domains shown)
VH: EVQLVESGGGLVQPGGSLRLSCAASGFTFSPFAMSWVRQAPGKGLEWVAKISPGGSWTYYSDDVTDRFTFSLDTSKSTAYLQMNSLRAEDTAVYYCARQLWGYYALDIWGQGTLVTVSS
VL: DIQLTQSPSSLSASVGDRVTITCSASISVSYLYWYQQKPGKAPKLLIYDDSSLASGVPSRFSGSGSGTDFTLTISSLQPEDFATYYCQQWSGYPYTFGQGTKVEIK
notes: as for B1
B11: anti-IL-6 antibody, heavy chain S35Y, G66D / light chain M32L, M50D, N52S, M88Q (antibody, IgG1, V domains shown)
VH: EVQLVESGGGLVQPGGSLRLSCAASGFTFSPFAMYWVRQAPGKGLEWVAKISPGGSWTYYSDTVTDRFTFSLDTSKSTAYLQMNSLRAEDTAVYYCARQLWGYYALDIWGQGTLVTVSS
VL: DIQLTQSPSSLSASVGDRVTITCSASISVSYLYWYQQKPGKAPKLLIYDDSSLASGVPSRFSGSGSGTDFTLTISSLQPEDFATYYCQQWSGYPYTFGQGTKVEIK
notes: as for B1
B12: anti-IL-6 antibody, heavy chain S35F, G66D / light chain M32L, M50D, N52S, M88Q (antibody, IgG1, V domains shown)
VH: EVQLVESGGGLVQPGGSLRLSCAASGFTFSPFAMFWVRQAPGKGLEWVAKISPGGSWTYYSDTVTDRFTFSLDTSKSTAYLQMNSLRAEDTAVYYCARQLWGYYALDIWGQGTLVTVSS
VL: DIQLTQSPSSLSASVGDRVTITCSASISVSYLYWYQQKPGKAPKLLIYDDSSLASGVPSRFSGSGSGTDFTLTISSLQPEDFATYYCQQWSGYPYTFGQGTKVEIK
notes: as for B1
B13: anti-IL-6 antibody, heavy chain S35I, G66D / light chain M32L, M50D, N52S, M88Q (antibody, IgG1, V domains shown)
VH: EVQLVESGGGLVQPGGSLRLSCAASGFTFSPFAMIWVRQAPGKGLEWVAKISPGGSWTYYSDTVTDRFTFSLDTSKSTAYLQMNSLRAEDTAVYYCARQLWGYYALDIWGQGTLVTVSS
VL: DIQLTQSPSSLSASVGDRVTITCSASISVSYLYWYQQKPGKAPKLLIYDDSSLASGVPSRFSGSGSGTDFTLTISSLQPEDFATYYCQQWSGYPYTFGQGTKVEIK
notes: as for B1
B14: anti-IL-6 antibody, heavy chain S35P, G66D / light chain M32L, M50D, N52S, M88Q (antibody, IgG1, V domains shown)
VH: EVQLVESGGGLVQPGGSLRLSCAASGFTFSPFAMPWVRQAPGKGLEWVAKISPGGSWTYYSDTVTDRFTFSLDTSKSTAYLQMNSLRAEDTAVYYCARQLWGYYALDIWGQGTLVTVSS
VL: DIQLTQSPSSLSASVGDRVTITCSASISVSYLYWYQQKPGKAPKLLIYDDSSLASGVPSRFSGSGSGTDFTLTISSLQPEDFATYYCQQWSGYPYTFGQGTKVEIK
notes: as for B1
B15: anti-IL-6 antibody, heavy chain S35D, G66D / light chain M32L, M50D, N52S, M88Q (antibody, IgG1, V domains shown)
VH: EVQLVESGGGLVQPGGSLRLSCAASGFTFSPFAMDWVRQAPGKGLEWVAKISPGGSWTYYSDTVTDRFTFSLDTSKSTAYLQMNSLRAEDTAVYYCARQLWGYYALDIWGQGTLVTVSS
VL: DIQLTQSPSSLSASVGDRVTITCSASISVSYLYWYQQKPGKAPKLLIYDDSSLASGVPSRFSGSGSGTDFTLTISSLQPEDFATYYCQQWSGYPYTFGQGTKVEIK
notes: as for B1
B16: anti-IL-6 antibody, heavy chain T63A, G66D / light chain M32L, M50D, N52S, M88Q (antibody, IgG1, V domains shown)
VH: EVQLVESGGGLVQPGGSLRLSCAASGFTFSPFAMSWVRQAPGKGLEWVAKISPGGSWTYYSDAVTDRFTFSLDTSKSTAYLQMNSLRAEDTAVYYCARQLWGYYALDIWGQGTLVTVSS
VL: DIQLTQSPSSLSASVGDRVTITCSASISVSYLYWYQQKPGKAPKLLIYDDSSLASGVPSRFSGSGSGTDFTLTISSLQPEDFATYYCQQWSGYPYTFGQGTKVEIK
notes: as for B1
B17: anti-IL-6 antibody, heavy chain S35K, G66D / light chain M32L, M50D, N52S, M88Q (antibody, IgG1, V domains shown)
VH: EVQLVESGGGLVQPGGSLRLSCAASGFTFSPFAMKWVRQAPGKGLEWVAKISPGGSWTYYSDTVTDRFTFSLDTSKSTAYLQMNSLRAEDTAVYYCARQLWGYYALDIWGQGTLVTVSS
VL: DIQLTQSPSSLSASVGDRVTITCSASISVSYLYWYQQKPGKAPKLLIYDDSSLASGVPSRFSGSGSGTDFTLTISSLQPEDFATYYCQQWSGYPYTFGQGTKVEIK
notes: as for B1
B18: anti-IL-6 antibody, heavy chain T63F, G66D / light chain M32L, M50D, N52S, M88Q (antibody, IgG1, V domains shown)
VH: EVQLVESGGGLVQPGGSLRLSCAASGFTFSPFAMSWVRQAPGKGLEWVAKISPGGSWTYYSDFVTDRFTFSLDTSKSTAYLQMNSLRAEDTAVYYCARQLWGYYALDIWGQGTLVTVSS
VL: DIQLTQSPSSLSASVGDRVTITCSASISVSYLYWYQQKPGKAPKLLIYDDSSLASGVPSRFSGSGSGTDFTLTISSLQPEDFATYYCQQWSGYPYTFGQGTKVEIK
notes: as for B1
B19: anti-IL-6 antibody, heavy chain S35Q, G66D / light chain M32L, M50D, N52S, M88Q (antibody, IgG1, V domains shown)
VH: EVQLVESGGGLVQPGGSLRLSCAASGFTFSPFAMQWVRQAPGKGLEWVAKISPGGSWTYYSDTVTDRFTFSLDTSKSTAYLQMNSLRAEDTAVYYCARQLWGYYALDIWGQGTLVTVSS
VL: DIQLTQSPSSLSASVGDRVTITCSASISVSYLYWYQQKPGKAPKLLIYDDSSLASGVPSRFSGSGSGTDFTLTISSLQPEDFATYYCQQWSGYPYTFGQGTKVEIK
notes: as for B1

Target: T1, human IL-6 (human, UniProt P05231 30-212)
T1 construct: IL-6 flowed over captured antibodies
T1 sequence (P05231 30-212 limits assumed): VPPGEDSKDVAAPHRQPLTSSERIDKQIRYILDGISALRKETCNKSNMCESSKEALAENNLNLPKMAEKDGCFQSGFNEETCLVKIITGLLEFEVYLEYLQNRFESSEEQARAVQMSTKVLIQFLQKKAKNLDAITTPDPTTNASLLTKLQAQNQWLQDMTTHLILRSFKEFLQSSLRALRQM
Assay: SPR Biacore, supernatant Ab on Protein A chip, 37 C
Method: Antibodies were captured on a Protein A chip (GE) by injecting 1:20 cell supernatant dilutions at 10 μL/min for 60 seconds. […] The sensor chip was regenerated by a 60 seconds injection of 10 mM Glycine pH 1.7 at the flow rate of 50 μL/min. […] For this setup, 1 μg/mL of purified antibody was injected over a Protein A chip at 10 μL/min for 25 seconds. […] The sensor chip was regenerated by a 60 seconds injection of 10 mM Glycine pH 1.7 at flow rate of 50 μL/min. Data analysis for supernatant and purified samples were performed using BIAevaluation software (GE). All sensorgrams were double reference subtracted and fit using a 1:1 Langmuir binding model.

Binder	Kd [nM]	koff [s⁻¹]	kon [M⁻¹ s⁻¹]
B1	4.84	0.00383	791000
B2	2.59	0.00243	942000
B3	0.609	0.000781	1.28e+06
B4	0.657	0.00126	1.93e+06
B5	0.498	0.000711	1.43e+06
B6	0.867	0.00189	2.18e+06
B7	1.33	0.00137	1.03e+06
B8	34.6	0.00591	171000
B9	4.04	0.0247	6.1e+06
B10	0.249	0.000413	1.66e+06
B11	3.43	0.00404	1.18e+06
B12	3.17	0.00484	1.53e+06
B13	1.62	0.00147	904000
B14	27.1	0.00548	202000
B15	0.753	0.00177	2.35e+06
B16	0.268	0.000458	1.7e+06
B17	2.64	0.00346	1.31e+06
B18	0.274	0.000459	1.67e+06
B19	0.3	0.000626	2.09e+06
